Laboratory results from PMC9933633.

Target: SARS-CoV-2 Spike RBD (SARS-CoV-2, UniProt P0DTC2 319-541)
Assay: electrochemical aptasensor

B1: Spike RBD aptamer (51-base, Song et al. 2020) (structured_DNA)
DNA: CAGCACCGACCTTGTGCTTTGGGAGTGCTGGTCCAAGGGCGTTAATGGACA
modifications: 5' C6-NH2
Question: Does B1 bind?
Answer: Result: binds
